Measurements: paper PMC12382605, “Dominant negative ADA2 mutations cause ADA2 deficiency in heterozygous carriers” (The Journal of Experimental Medicine, 2025)
Changes are numbered by the printed parent chain. Names and notes keep the numbering of the source.

T1: human WT ADA2, myc-FLAG-tagged (pCMV6) (human, UniProt Q9NZK5-1 30-511)
T1 sequence (looked up): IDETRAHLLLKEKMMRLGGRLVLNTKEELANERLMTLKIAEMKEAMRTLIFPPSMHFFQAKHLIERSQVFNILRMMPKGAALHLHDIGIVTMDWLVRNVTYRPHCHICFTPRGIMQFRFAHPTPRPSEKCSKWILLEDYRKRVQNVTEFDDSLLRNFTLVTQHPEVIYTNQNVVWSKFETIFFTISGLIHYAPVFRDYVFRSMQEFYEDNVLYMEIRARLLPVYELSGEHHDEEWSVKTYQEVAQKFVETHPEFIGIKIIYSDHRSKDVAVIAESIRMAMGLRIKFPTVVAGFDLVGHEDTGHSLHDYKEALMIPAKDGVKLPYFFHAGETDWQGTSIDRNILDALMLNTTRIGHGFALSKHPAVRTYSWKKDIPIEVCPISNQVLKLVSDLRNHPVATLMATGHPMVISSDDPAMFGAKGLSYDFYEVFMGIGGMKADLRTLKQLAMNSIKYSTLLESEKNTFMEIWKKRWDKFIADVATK

B1: ADA2 variant G47A, myc-FLAG-tagged (pCMV6) (enzyme, human, UniProt Q9NZK5-1 30-511, looked up)
chain: T1 sequence (looked up) with G18A
notes: adenosine deaminase 2 (ADA2), human; site-directed mutant of the WT clone of transcript 3, NM_001282225 (OriGene RC238645); Pathogenic variant that occurs in patients; also called p.G47A; source: HEK293T, transfected; in supernatant and whole-cell lysate
B2: ADA2 variant G47W, myc-FLAG-tagged (pCMV6) (enzyme, human, UniProt Q9NZK5-1 30-511, looked up)
chain: T1 sequence (looked up) with G18W
notes: adenosine deaminase 2 (ADA2), human; site-directed mutant of the WT clone of transcript 3, NM_001282225 (OriGene RC238645); Pathogenic variant that occurs in patients; source: HEK293T, transfected, in supernatant
B3: ADA2 variant G47R, myc-FLAG-tagged (pCMV6) (enzyme, human, UniProt Q9NZK5-1 30-511, looked up)
chain: T1 sequence (looked up) with G18R
notes: adenosine deaminase 2 (ADA2), human; site-directed mutant of the WT clone of transcript 3, NM_001282225 (OriGene RC238645); Patient variant; also called p.G47R; source: HEK293T, transfected; in supernatant and whole-cell lysate
B4: ADA2 variant G47V, myc-FLAG-tagged (pCMV6) (enzyme, human, UniProt Q9NZK5-1 30-511, looked up)
chain: T1 sequence (looked up) with G18V
B5: ADA2 variant E328K, myc-FLAG-tagged (pCMV6) (enzyme, human, UniProt Q9NZK5-1 30-511, looked up)
chain: T1 sequence (looked up) with E299K
B6: ADA2 variant R169Q, myc-FLAG-tagged (pCMV6) (enzyme, human, UniProt Q9NZK5-1 30-511, looked up)
chain: T1 sequence (looked up) with R140Q
B7: ADA2 variant Y453C, myc-FLAG-tagged (pCMV6) (enzyme, human, UniProt Q9NZK5-1 30-511, looked up)
chain: T1 sequence (looked up) with Y424C

Biological target: the molecule itself
Experiment: native gel or EMSA; supernatant of HEK293T transfected with one ADA2 construct (homozygous condition), collected after 48 h; NativePAGE 4-16% Bis-Tris, western blot with anti-ADA2; dimer band quantified relative to WT100%

Point of comparison: B1, “residual dimer in the supernatant (% of WT100%)” value ~48 % of WT100%. Against it:
- B2 — lower, ~9 % of WT100%
- B3 — higher, ~53 % of WT100%

What follows are binders tested against T1, human WT ADA2, myc-FLAG-tagged (pCMV6) (assay: cell-based or functional assay).

Point of comparison: B7, “adenosine deaminase activity of whole-cell lysate and supernatant of HEK293T cotransfected with WT and variant ADA2 (heterozygous), relative to WT50%” value 41 % of WT50%. Against it:
- B1 — not separable, < 75 % of WT50%
- B5 — not separable, < 75 % of WT50%
- B3 — not separable, < 75 % of WT50%

Point of comparison: B4, “adenosine deaminase activity of the supernatant of HEK293T cotransfected with WT and variant ADA2 (heterozygous), relative to WT50%” value 58 % of WT50%. Against it:
- B6 — lower, 23 % of WT50%
